For 94 variants, protein stability index results are on record in the supplement of paper PMC10567573.

The chains are these.
B1: APBB1IP (parent)
chain: SQVSMWDQRWQDHQPLLPITDVP
B2: FBF1 (parent)
chain: FGDSPKAEKRQIGDQEGPRPARST
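Also: lentivirally expressed fusions sorted by FACS into six bins by GFP to DsRed ratio, PSI derived from sequencing read proportions per bin multiplied by bin number.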

One data set covers variants of B1. The data set can be described thus: protein stability index of a GFP-peptide fusion (GPS, HEK-293T) (PSI 1-6); higher = more stable. The settings on record: c terminus: native.
Take SQVSMNDQRWQDHQPLLPITDVP [W6N]: the protein stability index is 3.52.
On the same count and under the same terms, to SQVSMRDQRWQDHQPLLPITDVP [W6R] belongs 3.29; to SQVSMWDQRWQDHFPLLPITDVP [Q14F], 2.25.
Same read-out and setting: with SQVSMWDQRWQDHIPLLPITDVP [Q14I] the figure was 2.09; with SQVSMWDQRWQDHHPLLPITDVP [Q14H], 2.67; with SQVSMWDQRWQDHRPLLPITDVP [Q14R], 1.86.
The same measure, in the same setting: with PQVSMWDQRWQDHQPLLPITDVP [S1P] the figure was 2.94.
In the case of SQVSMWDQRWQDHQPLLPITDDP [V22D], the protein stability index turned out to be 3.85.
Same read-out and setting: with SQVSMWDQRWQDHQPLLPITDGP [V22G] the figure was 2.42; with SQVSMWDQRWQDHQPLLPITDVE [P23E], 2.9; with SQVSMWDQRWQDHQPLLPITKVP [D21K], 2.44.
Same read-out and setting: with SQVSMWDQRWQDHQPLLPITEVP [D21E] the figure was 1.77.
On the same count and under the same terms, with SQVSMWQQRWQDHQPLLPITDVP [D7Q] the figure was 2.44; with SQVSMWNQRWQDHQPLLPITDVP [D7N], 2.44; with SQVSMWDQRCQDHQPLLPITDVP [W10C], 3.12.
With SQVSMWDQRSQDHQPLLPITDVP [W10S], the protein stability index stood at 3.37.
On the same count and under the same terms, with SHVSMWDQRWQDHQPLLPITDVP [Q2H] the figure was 2.23; with SLVSMWDQRWQDHQPLLPITDVP [Q2L], 1.5.
The same measure, in the same setting: with SQVSFWDQRWQDHQPLLPITDVP [M5F] the figure was 1.89.
Turning to SQVSGWDQRWQDHQPLLPITDVP [M5G], the protein stability index was 2.37.
Consider SQVSMWDQRWSDHQPLLPITDVP [Q11S], for which the protein stability index was determined as 2.37.
On the same count and under the same terms, with SQVSMWDQRWQDHQMLLPITDVP [P15M] the figure was 1.82.
The same measure, in the same setting: with SQVSMWDQRWQDHQPLLGITDVP [P18G] the figure was 1.76; with SQVSMWDQRWQDHQPLLEITDVP [P18E], 2.55; with SQYSMWDQRWQDHQPLLPITDVP [V3Y], 2.27.
Consider SQVSMWDQRWQDGQPLLPITDVP [H13G], for which the protein stability index was 3.03.
On the same count and under the same terms, to SQVSMWDQRWQLHQPLLPITDVP [D12L] belongs 2.44; to SQVSMWDQRWQNHQPLLPITDVP [D12N], 2.17.
The same measure, in the same setting: with SQVSMWDQRWQHHQPLLPITDVP [D12H] the figure was 1.64.
Regarding SQVSMWDQRWQMHQPLLPITDVP [D12M], the protein stability index turned out to be 1.85.
With SQVSMWDQRWQDHQPLLPKTDVP [I19K], the protein stability index was 4.04.

The variants in another data set derive from B2. The description is as above. The following applies: c terminus: a fixed tail appended.
On to FGDSPKAEKRQIGDQEGPSPARST [R19S], for which the protein stability index is 5.4.
On to FGDSPKAEKRQIGDQEGPKPARST [R19K], for which the protein stability index was determined as 4.88.
The same measure, in the same setting: to FGDSPKAEKRQIGDQEGPTPARST [R19T] belongs 4.23.
Same read-out and setting: with FGDSPKAEKRQIGDQEGPMPARST [R19M] the figure was 4.9; with FGDSPKAEKRQIGDQEGPNPARST [R19N], 5.34.
The same measure, in the same setting: with FGDSPKAEKRQIGDQEGPEPARST [R19E] the figure was 5.73.
FGDSPKAEKRQIGDQEGPLPARST [R19L]: the protein stability index was 4.9.
Still for that read-out and setting: with FGDSPKAEKRQIGDQEGPYPARST [R19Y] the figure was 4.21; with FGDSPKACKRQIGDQEGPRPARST [E8C], 4.11.
Still for that read-out and setting: with FGDSPKALKRQIGDQEGPRPARST [E8L] the figure was 3.87; with FGDSPKAEKRQMGDQEGPRPARST [I12M], 5.04.
The same measure, in the same setting: with FGDSPKAEKRQYGDQEGPRPARST [I12Y] the figure was 4.24; with FGDSPKAEKRQQGDQEGPRPARST [I12Q], 5.5; with FGDSPKAEKRQDGDQEGPRPARST [I12D], 4.89.
FGDSPKAEKRQFGDQEGPRPARST [I12F]: the protein stability index was determined as 4.47.
The same measure, in the same setting: with FGDSPKAEKRQCGDQEGPRPARST [I12C] the figure was 2.83; with FGDSPKAEKRQLGDQEGPRPARST [I12L], 4.78.
Still for that read-out and setting: with FGDSPKAEKRQIPDQEGPRPARST [G13P] the figure was 5.16.
The same measure, in the same setting: with FGDSPKAEKRQISDQEGPRPARST [G13S] the figure was 4.82.
Turning to FGDSPKAEKRQIEDQEGPRPARST [G13E], the protein stability index is 5.34.
Regarding FGDSPKAEKRQIHDQEGPRPARST [G13H], the protein stability index turned out to be 4.69.
The same measure, in the same setting: to FGDSPKAEKRQIWDQEGPRPARST [G13W] belongs 2.74; to FGDSPKAEKRQIFDQEGPRPARST [G13F], 4.71; to FGDSPKAEKRQIRDQEGPRPARST [G13R], 5.09.
Still for that read-out and setting: with FGDSPKAEKRQIGTQEGPRPARST [D14T] the figure was 5; with FGDSPKAEKRQIGKQEGPRPARST [D14K], 4.5; with FGDSPKAEKRQIGRQEGPRPARST [D14R], 4.82.
On the same count and under the same terms, with FGDSPKAEKRQIGWQEGPRPARST [D14W] the figure was 4; with FGDSPKAEKRQIGIQEGPRPARST [D14I], 4.38.
With FGDSPKAEKRQIGEQEGPRPARST [D14E], the protein stability index was 5.03.
The same measure, in the same setting: with FGDSPKAEKRQIGFQEGPRPARST [D14F] the figure was 4.65; with FGDSPKAEKRQIGCQEGPRPARST [D14C], 4.7.
Turning to FGDSPKAEKRQIGDQWGPRPARST [E16W], the protein stability index is 3.48.
On the same count and under the same terms, with FGDSPKAEKRQIGDQGGPRPARST [E16G] the figure was 3.41; with FGDSPKAEKRQIGDQVGPRPARST [E16V], 4.99.
Still for that read-out and setting: to FGDSPKAEKRQIGDQHGPRPARST [E16H] belongs 4.21; to FGDSPKAEKRQIGDQAGPRPARST [E16A], 4.55; to FGDSPKAEKRQIGDQLGPRPARST [E16L], 4.66.
The same measure, in the same setting: with FGDSPKAEKRQIGDQRGPRPARST [E16R] the figure was 5.02.
On to FGDSPKAEKRQIGDQYGPRPARST [E16Y], for which the protein stability index was 4.14.
On the same count and under the same terms, to FGDSPKAEKRQIGDQIGPRPARST [E16I] belongs 4.83; to FGDSPKAETRQIGDQEGPRPARST [K9T], 5.17; to FGDSPKAEDRQIGDQEGPRPARST [K9D], 5.52.
Still for that read-out and setting: with FGDSPKAEIRQIGDQEGPRPARST [K9I] the figure was 5.23; with FGDSPKAEFRQIGDQEGPRPARST [K9F], 4.43.
Still for that read-out and setting: with FGDSPKAEARQIGDQEGPRPARST [K9A] the figure was 4.97.
In the case of FGDSPKAESRQIGDQEGPRPARST [K9S], the protein stability index was found to be 5.47.
The same measure, in the same setting: to FGDSPKAERRQIGDQEGPRPARST [K9R] belongs 5.46.
For the variant FGDSPVAEKRQIGDQEGPRPARST [K6V], the protein stability index amounted to 4.24.
The same measure, in the same setting: to FGDSPPAEKRQIGDQEGPRPARST [K6P] belongs 4.89; to FGDSPCAEKRQIGDQEGPRPARST [K6C], 5.52; to FGDSPAAEKRQIGDQEGPRPARST [K6A], 5.55.
On the same count and under the same terms, with FGDSPYAEKRQIGDQEGPRPARST [K6Y] the figure was 4.8; with FGDSPNAEKRQIGDQEGPRPARST [K6N], 5.08; with FGDSPKAEKRQIGDQEGPRPARVT [S23V], 5.
The same measure, in the same setting: with FGDSPKAEKRQIGDQEGPRPARKT [S23K] the figure was 4.29; with FGDSPKAEKRQIGDQEGPRPARPT [S23P], 4.67; with FGDSPKAEKRQIGDQEGPRPARHT [S23H], 5.53.
For FGDSPKAEKRQIGDQEGPRPARNT [S23N], the protein stability index is 5.5.
Turning to FGDSPKAEKRQIGDQEGPRPARMT [S23M], the protein stability index turned out to be 5.01.
On to FGDSPKAEKRQIGDQEGPRPARTT [S23T], for which the protein stability index amounted to 5.12.
Turning to FGDSPKAEKRQIGDQEGPRPARIT [S23I], the protein stability index came out at 4.57.
Still for that read-out and setting: to FGDSPKAEKRQIGDQEGPRPARGT [S23G] belongs 5.7.
